The text below walks through data of patent publication US20220125947A1.

Experiment [1] addresses Vg9/Vd2 TCR on SKW3_4 cells (UniProt Q99603). The experiment is described as follows: flow cytometry, dose-response binding at 37° C. on SKW3_4 cells expressing Vg9/Vd2. In general terms: Flow cytometry measures light scatter and fluorescence of single cells or particles in a stream.
Experiment [2] has as its target Vg5/Vd2 TCR on SKW3 cells (UniProt A0JD36). The experiment is described as follows: flow cytometry, dose-response binding at 37° C. on SKW3 cells expressing Vg5/Vd2.
Experiment [3] deals with Vg9/Vd1 TCR on SKW3 cells (UniProt Q99603). Put plainly: flow cytometry, dose-response binding at 37° C. on SKW3 cells expressing Vg9/Vd1.
Vg9/Vd1 TCR on SKW3 cells, sequence (Q99603 21-122): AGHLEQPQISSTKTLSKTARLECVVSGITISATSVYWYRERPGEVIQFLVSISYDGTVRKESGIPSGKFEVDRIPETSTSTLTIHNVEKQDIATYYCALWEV
Experiment [4] addresses Vg9/Vd2 TCR on SKW3_4 cells (UniProt Q99603). The experiment is described as follows: flow cytometry DRC binding 37 C, SKW3_4 cells expressing Vg9/Vd2.
The target of experiment [5] is Vg5/Vd2 TCR on SKW3 cells (UniProt A0JD36). Put plainly: flow cytometry DRC binding 37 C, SKW3 cells expressing Vg5/Vd2.
Vg5/Vd2 TCR on SKW3 cells, sequence (A0JD36 20-115): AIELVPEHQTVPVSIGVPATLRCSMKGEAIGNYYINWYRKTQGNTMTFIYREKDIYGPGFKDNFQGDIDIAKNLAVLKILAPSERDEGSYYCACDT
In experiment [6] the target is Vg9/Vd1 TCR on SKW3 cells (UniProt Q99603). The experiment is described as follows: flow cytometry DRC binding 37 C, SKW3 cells expressing Vg9/Vd1.

Vg9/Vd2 TCR on SKW3_4 cells, sequence (Q99603 21-122, chain 1 of 2): as the sequence (Q99603 21-122) above
Vg9/Vd2 TCR on SKW3_4 cells, sequence (A0JD36 20-115, chain 2 of 2, further chain): as the sequence (A0JD36 20-115) above

B1: VG9B67 (antibody, human IgG1, kappa, V domains shown)
VH: EVQLVESGGGLVKPGGSLRLSCAASGFTFSSYTMNWVRQAPGKGLEWVSSISSSSSYIDYAESVKGRFTISRDNAKNSLYLQMNSLRAEDTAVYYCARDGDILATIRGSFDYWGQGTTVTVSS
VL: DIVMTQTPLSLPVTPGEPASISCRSSQSLLDSDAGNTYLDWYLQKPGQSPQLLIYTLSYRASGVPDRFSGSGSGTDFTLKISRVEAEDVAIYYCMQRIEFPITFGQGTKVEIKR
As to B1, the Max. Activity (fold over background) came to 128 in experiment [1], 1.14 in experiment [2] and 318 in experiment [3].

B2: VG9B127 (antibody, human IgG1, kappa, V domains shown)
VH: QVQLVESGGGLVKPGGSLRLSCTASGFTFGAYTMNWVRQAPGKGLEWVSSISSSSSYIDFAESVKGRFTISRDNAKNSLYLQMISLRAEDTAVYYCARDGDIVSTIRGSFDYWGQGALVTVSS
VL: EIVMTQSPLSLPVTPGEPASISCRSSQSLLDSDDGNTYLDWYLQKPGQSPQLLIYTLSYRASGVPDRFSGSGSGTDFTLKISRVEAEDVGIYYCMQRIEFPITFGQGTKVEIKR
For the molecule B2, the figures for the Max. Activity (fold over background) in experiment [1], in experiment [2] and in experiment [3] were 91.9, 1.78 and 318, respectively.

B3: VG9B66 (antibody, human IgG1, kappa, V domains shown)
VH: EVQLVESGGGLVKPGGSLRLSCAASGFTFSTYTMNWVRQAPGKGLEWVSSISSSSFYMDYADSVKGRFTISRDNAKNSLSLLMNSLRAEDTAVYYCARDGDIVATIRGSFDYWGQGTMVTVSS
VL: EIVLTQSPSSLSTSVGDRVTITCRASQDITNFLAWYQQKPGKLPKLLIYTASTLQSGVPSRFSGSASGPDFTLTISSLQPEDVATYYCQKYNSAPFTFGPGTKVEIKR
For the molecule B3, the Max. Activity (fold over background) in experiment [1] is 33.9; in experiment [2] it was 1.04; in experiment [3], 179.

B4: VG9B41 (antibody, human IgG1, kappa, V domains shown)
VH: QVQLQESGPQLVRPGASVKISCKASGYSFTTYWMHWVKQRPGQGLEWIGLIDPSDSETRLNQKFKDKATLTVDKSSSTAYMRLSSPTSEDSAVYYCASNRWLLGWGQGTMVTVSS
VL: EIVLTQTPLSSPVTLGQPASISCRSSQSLVHSDGNTYLSWLHQRPGQPPRLLIYKISNRFSGVPDRFSGSGAGTDFTLKISRVETEDVGVYYCVQTREFPLTFGGGTKVEIKR
As for B4, the values for the Max. Activity (fold over background) in experiment [4], in experiment [5] and in experiment [6] were 11.4, 16.1 and 2.18, respectively.

B5: VG9B44 (antibody, human IgG1, kappa, V domains shown)
VH: QVQLQQSGPGLVKPSQTLSLTCAISGDSVSSNSAAWNWIRQSPSRGLEWLGRTYYRSKWYNDYPISVKSRISINPDTSKNQFSLQLNSVTPEDTAVYYCARESGSYYTDGFDIWGQGTMVTVSS
VL: DIQMTQSPSFLSASVGDRVTITCRASQGISSYLAWYQQKPGKAPKLLIYAASTLQSGVPSRFSGSGSGTEFTLTISSLQPEDFATYYCQEFNSYPYTFGQGTKLEIKR
For the molecule B5, the Max. Activity (fold over background) in experiment [1] was 170; in experiment [2], 2.13; in experiment [3], 375.

B6: VG9B152 (antibody, human IgG1, lambda, V domains shown)
VH: EVQLVESGGGLVRPGGSLRLSCEASGFTFSSYSMIWVRQAPGKGLEWVSSISSSSDYIYNADSVKGRFTISRDNAKNSLYLQMNSLRAEDTAVYYCARDWELLGFDCWGQGTTVTVSS
VL: SYELMQPPSVSVSPGQTASITCSGDKLGDKYACWYQQKPGQSPVLVIYQHNKRPSGIPERFSGSNSGKTATLTISGTQAMDEADYYCQAWDSTTVVFGGGTKLTVLG
With B6, the Max. Activity (fold over background) was 141 in experiment [1], 1.64 in experiment [2] and 352 in experiment [3].

B7: VG9B136 (antibody, human IgG1, kappa, V domains shown)
VH: QVQLQQSGPGLVKPSQTLSLTCAISGDSVSSNRAAWNWIRQSPSKGLEWLGRTYYRSKWYNEYAASVKSRMSINPDTSKNQFSLQLNSVTPEDTALYYCARDLWELREACDIWGQGTMVTVSS
VL: DIVMTQSPSFLSTFVGDRVTITCRASQGISSYLAWYQQKPGKVPKLLIYVASTLQSGVPSRFSGSGSGTEFTLTISSLQPEDFATYYCQQLNSYPFTFGPGTKVDIKR
Turning to B7, the Max. Activity (fold over background) in experiment [4] worked out at 181; in experiment [5], 226; in experiment [6], 288.

B8: VG9B57 (antibody, human IgG1, kappa, V domains shown)
VH: EVQLVESGGGLVKPGGSLRLSCAASGFTFSSHDMNWVRQAPGKGLGWVSSISSSSSYIFYADSVKGRFTISRDNAKNSLYLQMSSLRAEDTAVYYCARDLGVGVRDYYYYGMDVWGQGTMVTVSS
VL: DIQMTQSPSAMSASVGDRVTITCRASQDITNYLAWFQQKPGKVPKRLIYAASSLQGGVPSRFSGSGSGTEFTLTISSLQPEDFSTYYCLQHDTYPYTFGQGTKLEIKR
With B8, the values for the Max. Activity (fold over background) in experiment [1], in experiment [2] and in experiment [3] were 30.8, 1.04 and 75.9, respectively.

B9: VG9B191 (antibody, human IgG1, lambda, V domains shown)
VH: EVQLVQSGGGLVKPGGSLRLSCAASGFTFSRYSMNWVRQAPGKGLEGVSSISSSSSYIYYADSVKGRFTISRDNAKNSLYLQMNSLRAEDTAVYYCARDGPTVNWDYYFDLWGRGTLVTVSS
VL: QSVLTQPPSVSAAPGQKVTISCSGSSSNIGNNYVSWYQQLPGTAPKLLIYDNNKRPSGIPDRFSGSKSGTSATLGITGLQTGDEADYYCGTWDSSLSTSVVFGGGTKLTVLG
In the case of B9, the Max. Activity (fold over background) in experiment [1] amounted to 156; in experiment [2] it was 17.2; in experiment [3] it was 381.

B10: VG9B162 (antibody, human IgG1, lambda, V domains shown)
VH: QVQLVESGAEVTKPGASVKVSCKASGYTFTGDYMHWVRQAPGQGLEWMGWINPNSGYTNYAQKFQGRVTMTRDTSISTAYMELSRLRSDDTAVYYCAREGDAFDVWGQGTMVTVSS
VL: QLVLTQSSSASGSPGQSVTISCTGTSSDVGGYNYVSWYQQHPGKAPKLMIYEVSKRPSGVPDRFSGSKSGNTASLTVSGLQAEDEADYYCNSYAGSNNFEVFGGGTKLTVLG
B10: the Max. Activity (fold over background) amounted to 96.3 in experiment [1], 2.44 in experiment [2] and 249 in experiment [3].

B11: VG9B189 (antibody, human IgG1, lambda, V domains shown)
VH: EVQLVQSGGGLVKPGASLKLSCAASGFTFSNHGMSWVRQTSDKRLEWVASITRGGDTTYYPDNVKGRFTISRENAKNTLYLQMSSLKSDDTALYYCTRGPLTVGYAMDYWGQGTTVTVSS
VL: QSVVTQPPSASGSPGQSVTISCTGTSSDVGGYNYVSWYQQHPGKAPKLMIYEVSKRPSGVPDRFSGSKSGNTASLTVSGLQAEDEADYYCNSYAGSNNFEVFGGGTKVTVLG
With B11, the figures for the Max. Activity (fold over background) in experiment [4], in experiment [5] and in experiment [6] were 46.1, 21.5 and 1.46, respectively.

B12: VG9B144 (antibody, human IgG1, lambda, V domains shown)
VH: QVQLVQSGAEVKKPGASVKVSCKASGYTFTGYYMHWMRQAPGQGLEWMGWINPNSGATNKEQKFQGRVTMTRDTSISTAYMELSRLRSDDTAVYYCAREDDAFDVWGQGTMVTVSS
VL: SSELTQDPAVSVALGQTVRITCQGDNLRNYYATWFQQKPGQAPVLVFFGKNNRPSGIPDRFSGSSSGDTASLTITGAQAEDEADYYCNSRDSSGNHVVFGGGTKLTVLG
B12: the values for the Max. Activity (fold over background) in experiment [4], in experiment [5] and in experiment [6] were 123, 194 and 205, respectively.

B13: VG9B33 (antibody, human IgG1, kappa, V domains shown)
VH: EVQLVESGGGLVKPGGSLRLSCAASGFTFSSYNMNWVRQAPGKGLEWVSSISTSSSYIYYADSVKGRFTISRDNAKNSLYLQMNGLRAEDTAVYYCARDTSVTKYPDTFDIWGQGTMVTVSS
VL: DIVMTQSPSSLSASVGDRVTITCRASQDINNYLAWFQQKPGKVPNLLIYGASTLQSGVPSRFTGSGSGTDFTLTISSLQPEDVATYYCQKYNSAPFTFGPGTKVDIKR
On to B13, for which the Max. Activity (fold over background) in experiment [1] worked out at 173; in experiment [2] it was 2.85; in experiment [3], 377.

B14: VG9B409 (antibody, human IgG1, kappa, V domains shown)
VH: EVQLVESGAEVKKPGASVKVSCKASGYTLTSYYMHWVRQAPGQGLEWMGIINPSGGSTSYAQKFQGRVTMTRDTSTSTVYMELSSLRSEDTAVYYCARGSYGWYFDLWGRGTLVTVSS
VL: EIVLTQSPGTLSLSPGERATLSCRASQSVTSSYLAWYQQKPGQTPRLLIYGASSRATGIPDRISGSGSGTDFTLTVSRLEPEDFAVYYCQQYGSSPPYTFGQGTKLEIKR
As for B14, the Max. Activity (fold over background) in experiment [1] was determined as 176; in experiment [2], 8.45; in experiment [3] it was 408.

B15: VG9B21 (antibody, human IgG1, kappa, V domains shown)
VH: EVQLLESGGGLVKPGGSLRLSCAASGFSFSNYDMNWVRQAPRKGLEWVSSISSSSHYIYYADSLKGRFTISRDNAKNSLFLQMNSLRAEDTAVYYCARDRGVTTDYYYYALDVWGQGTMVTVSS
VL: DIVMTQSPSSLSASVGDRVTITCRASQGIYNYLAWYQQKPGNVPKLLIYAASTLQSGVPSRFSGSGSGTDFSLTISSLQPEDFTTYYCQKYNRAPFTFGPGTKVDIKR
B15: the results for the Max. Activity (fold over background) in experiment [1], in experiment [2] and in experiment [3] were 39.7, 1.86 and 121, respectively.

B16: VG9B60 (antibody, human IgG1, kappa, V domains shown)
VH: QVQLVQSGAEVKKPGASVKVSCKASGYTFTGYYMHWVRQAPGQGLEWMGRINPNSGVTHYAQKFQGRVTMTRDTSISTAYMELSRLRSDDTAVYYCARGGSLVRGVISGLDYWGQGTTVTVSS
VL: DIVMTQSPGTLSLSPGERATLSCRASQSFSGSYLAWYQQKPGQAPSLLIYGASSRATGIPDRFSGSGSGTDFTLTISRLEPEDFALYYCQQYGSSPPYTFGQGTKVEIKR
Consider B16, for which the Max. Activity (fold over background) in experiment [1] stood at 16.7; in experiment [2] it was 1.42; in experiment [3], 40.6.
